Test results published in the DeepSol protein solubility set.

assay: soluble on expression in E. coli; label from the status in PepcDB or PDB records

Sequence | soluble on expression in E. coli
AQSVPPGDINTQPSQKIVFNAPYDDKHTYHIKITNAGGRRIGWAIKTTNMRRLSVDPPCGVLDPKEKVLMAVSCDTFNAATERLNNDRITIEWTNTPDGAAKQFRREWFQGDGMVRRKNLPIEYNL | soluble
ARLKHLEDEPGHEDEGKRPLFHFSAVERIARIGVPSMIQQSIVSISMLMMQGLVNSYGSVFIAGYTAATKIDSLAMMPNMNFSNAMSSYTAQNIGAGKIERVKDGYKANM | not soluble
ASPLMSRTPAFERAAALARAKSAALHIVAFDYVEGLAAAGLLNERALNEMRDGYLASHRQWLEQQAQLIRQSGVEVTTEVVWVMRPLDEIMAHVHEIKPSMVIKDIGHESWLTRAMFTSLDIRLLHDCPVPLHLVANVDH | not soluble
ATGTCGTTGGCAAAAGCGTCCTTGTGGACGGCGGCCAGTACACTGGTCAAGATTGGTGCCGGGTTACTGGTCGGTAAGTTGCTGGCGGTGTCATTTGGTCCGGCGGGGCTTGGGCTGGCGGCAAATTTCCGCCAGTTGATTACCGTGCTCGGCGTGCTTGCCGGGGCTGGCATCTTTAACGGTGTAACCAAATACGTTGCCCAGTACCATGATAATCCGCAACAGCTGCGCCGCGTGGTCGGCACTTCATCAGCGATGGTACTTGGTTTCTCTACGCTGATGGCGCTGGTTTTTGTGCTGGCAGCTGCGCCAATCAGCCAGGGATTGTTTGGTAATACCGACTATCAGGGGCTGGTGCGTTTAGTGGCGCTGGTGCAAATGGGGATCGCCTGGGGCAACCTGTTACTGGCGCTGATGAAAGGCTTTCGSGATGCCGCAGGTAATGCGTTATCGCTGATTGTCGGCAGCTTGATTGGCGTTCTCGCGTACTACGTCAGTTACCGTTTGGGCGGTTATGAAGGGGCGTTGCTGGGTCTGGCGCTGATTCCCGCGCTGGTGGTAATTCCTGCCGCCATCATGTTGATCAAACGTGGTGTCATCCCGTTAAGCTATCTGAAACCCAGCTGGGATAACGGTCTGGCAGGGCAGTTGAGCAAATTTACGCTCATGGCGTTGATTACGTCGGTGACCTTGCCTGTTGCTTACATCATGATGCGTAAACTGCTGGCGGCGCAGTATAGCTGGGATGAGGTGGGGATCTGGCAAGGGGTGAGCAGTATTTCCGATGCCTACCTGCAATTTATTACGGCATCGTTCAGCGTATATTTGCTGCCCACGTTGTCGCGGCTAACGGAAAAGCGCGATATCACCCGGGAAGTGGTTAAATCGCTGAAATTCGTCTTACCGGCAGTGGCGGCGGCGAGTTTTACCGTCTGGCTGCTGCGTGATTTTGCTATCTGGCTGCTGTTGTCGAATAAATTTACCGCTATGCGCGATCTCTTTGCCTGGCAGTTAGTGGGTGATGTGTTAAAAGTGGGCGCTTATGTCTTTGGTTATCTGGTGATCGCCAAAGCGTCACTGCGGTTTTATATTCTGGCGGAAGTCAGCCAGTTCACTTTATTGATGGTATTTGCCCACTGGCTAATCCCTGCGCATGGTGCACTGGGCGCGGCGCAGGCATATATGGCAACTTATATCGTCTATTTTTCTCTTTGTTGTGGCGTGTTTTTACTCTGGCGTAGGCGGGCATGA | not soluble
AVGTPITISVPSLPYANSASEIVLSQLRDIGFDVRLESTEFPSVWLSKVYKAKDYDMSVVAHVEARDIPNLFGNPDYYLGFDDEQVRELLAQADSGDADSYVSTMKKVVNRIMDQAGADTLFNLPNIVVTQPDVSGVPTNLVADGLVVSNISRSED | not soluble
AVINHDAVPVWPQPEPADATQALAVRFKPQLDVVNGCQPYPAVDPQGNTSGGLKPSGSQAAACRDMSKAQVYSRSGTYNGYYAIMYSWYMPKDSPSTGIGHRHDWENVVVWLDNAASANIVALSASAHSGYKKSFPADKSYLDGITAKISYKSTWPLDHELGFTTSAGKQQPLIQWEQMTQAARDALESTDFGNANVPFKSNFQDKLVKAFFQ | soluble
AVTKLVLVRHGESQWNKENRFTGWYDVDLSEKGVSEAKAAGKLLKEEGYSFDFAYTSVLKRAIHTLWNVLDELDQAWLPVEKSWKLNERHYGALQGLNKAETAEKYGDEQVKQWRRGFAVTPPELTKDDERYPGHDPRYAKLSEKELPLTESLALTIDRVIPYWNETILPRMKSGERVIIAAHGNSLRALVKYLDNMSEEEILELNIPTGVPLVYEFDENFKPLKRYYLGNADEIAAKAAAVANQGKAK | soluble
AWVDQTPRTATKETGESLTINCVLRDASFELKDTGWYRTKLGSTNEQSISIGGRYVETVNKGSKSFSLRISDLRVEDSGTYKCQAFYSLLLRDYNYSLLFRGEKGAGTALTVKAAA | soluble
CGSSSHETSYGYATLSYADYWAGELGQSRDVLLAGNAEADRAGDLDAGMFDAVSRATHGHGAFRQQFQYAVEVLGEKVLSKQETEDSRGRKKWEYETDPSVTKMVRASASFQDLGEDGEIKFEAVEGAVALADRASSFMVDSEEYKITNVKVHGMKFVPVAVPHELKGIAKEKFHFVEDSRVTENTNGLKTMLTEDSFSARKVSSMESPHDLVVDTVGTGYHSRFGSDAEASVMLKRADGSELSHREFIDYVMNFNTVRYDYYGDDASYTNLMASYGTKHSADSWWKTGRVPRISCGINYGFDRFKGSGPGYYRLTLIANGYRDVVADVRFLPKYEGNIDIGLKGKVLTIGGADAETLMDAAVDVFADGQPKLVSDQAVSLGQNVLSADFTPGTEYTVEVRFKEFGSVRAKVVAQ | soluble
CIHSLKSEAIFFERTANFDGNTREKIIAMHVGYRIYARMEPVLSTCAIVAKTPWVLEKASPERLNELNRLEEEVISGADALVNNAVECGDLKFSPAIGADAIVFANWSIAFGSNALAQNASNSRCIQRIQDPFSVLHNANMLLDGLGWAPLSTEWDYRKTWRRVEQELFSEEIAYLETVNR | not soluble
CKRNVFNPSIPNRTQFIEDPIANLSIPSKDAAIKVTPYTFEGTSGRVYAHVERFFKFNGEYYIIFFRRYIYDTQAGTYAETAPGGNYHLIKIGKSMKYQEVAVNLNQDHPGLYARYTTIAQGNAYIKGSDIYVPINMADLSKGYYQSSSADLSKWTTNNNTALDVAGLGLTKIEVMDTSRITVGKYTYMYNGGGLQFSINRLEDRMRQAAERYETKMVFNEADFNNLHMFDIGMDTDGDNQIDYRMNPTNYIENDTDYSWIGMQTPHQVWIMPFNDGEKDYLIRFVEYCSGMYNINTLKTERDSAKTKADTALTQALALVSNPNSSKAEIAEACYQSIRNNLEYEVRNYFIGKYESVFKTSTPTAYVVPNYALTHYVIEIVDIQ | not soluble
CVTGDTLVFTDKGLIEARKLEVGMKVWSGDGWNEIKEVINNGVKPVLKLKLKTGLEIKVTEEHKIFTGEGWKEAKDLKVGDKLYLPVSYPELDFPVKEENDFYEFLGYFLGDGSLSVSNHVSLHVGNDKELALYFKEKVEKYAGAAYLIERDGQYIIDVHRKEFAEKIKKIFGIEITDSKEKDIPSSLLAVNSEAMKALLRGLFSADGSVYDANGSITVALSSTSYPLLRKVQILLLSLGIPSTLTGEKDQDVKIIKGNEYETLPTYRLIISGERASLFFNKIGLIGEKKKKFLELMAGKTTYSTLNNHLYQEIVSIEPAGEEEVFDITAPPKYTWITNGILSLD | soluble
DADLATGAKVFSANCAACHAGGINLVNAEKTLKKEALEKFGMNSIVAITTQVTNGKAGMPAFKGRLTDDQIAAVAAYVLDQAEKGW | soluble
DIIITAGGKNITPAEIESRLKFSHYISDAVIVGDKRKFLTCLIMIDQENVEKFAQDRKVPFSNFASLCAAKEVRELIAAEVAQVNKEFARVEQIKDFRLIDVLLTAEDDELTATMKLKRSFVEKKHAHLIEDMYK | soluble
DKMDGAPSRVLHIRKLPGEVTETEVIALGLPFGKVTNILMLKGKNQAFLELATEEAAITMVNYYSAVTPHLRNQPIYIQYSNHKELKT | soluble
DKSNKLQNLVAEQLVGCGFNEILNNSLTRAAYYDGLESYPSKNLVMLLNPLSADLNCMRQTLLFGGLESIAHNANRKNADLKFFEFGNCYHFDAEKKNPEKVLAPYSEDYHLGLWVTGKMVSNSWAHADENTSVYELKAYVENIFKRLGLDLHSLVVGNLSDDIYSTALTVNTKGGKRLATFGVVTKKMLKAFDVDNEVYYADLNWK | not soluble
DLREVLDFMLKDEVSKLRKLLVKIKTKKIAEVEYENVVKALKLFKDNYEINEYLMDENTKEFLIKRNILFLNPVEEILKPQSYLVWNAIKRVLQNINDF | soluble
